{
  "source": "paper PMC3764826",
  "about": "“Bpur, the Lyme Disease Spirochete's PUR Domain Protein”",
  "key": {"[1]": {"target": "T1, Bpur (Borrelia burgdorferi B31, UniProt O51076 1-122)", "T1 sequence": "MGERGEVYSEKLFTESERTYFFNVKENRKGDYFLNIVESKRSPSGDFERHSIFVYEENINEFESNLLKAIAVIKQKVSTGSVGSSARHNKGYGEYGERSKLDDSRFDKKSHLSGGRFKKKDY", "test": "competition; 100-fold excess vs Bio-1; EMSA: 50 mM Tris pH 7.5, 25 mM KCl, 1 mM MgCl2, 100 nM DTT, 10% glycerol, 0.01% Tween 20, 0.1% PMSF; temperature not stated; RNA/ssDNA probes preheated at 56 C, RiboGuard with RNA", "settings": "protein: recombinant; tags: His tag (pET101, nickel purification); chain copies: 2"}, "[2]": {"target": "T1, Bpur", "test": "EMSA; simultaneous with Bio-2; EMSA: 50 mM Tris pH 7.5, 25 mM KCl, 1 mM MgCl2, 100 nM DTT, 10% glycerol, 0.01% Tween 20, 0.1% PMSF; temperature not stated; RNA/ssDNA probes preheated at 56 C, RiboGuard with RNA", "settings": "protein: recombinant; tags: His tag (pET101, nickel purification); chain copies: 2; label: 5' biotin"}, "[3]": {"target": "T1, Bpur", "test": "EMSA; simultaneous with Bio-3; EMSA: 50 mM Tris pH 7.5, 25 mM KCl, 1 mM MgCl2, 100 nM DTT, 10% glycerol, 0.01% Tween 20, 0.1% PMSF; temperature not stated; RNA/ssDNA probes preheated at 56 C, RiboGuard with RNA", "settings": "protein: recombinant; tags: His tag (pET101, nickel purification); chain copies: 2; label: 5' biotin"}, "[4]": {"target": "T1, Bpur", "test": "EMSA; EMSA: 50 mM Tris pH 7.5, 25 mM KCl, 1 mM MgCl2, 100 nM DTT, 10% glycerol, 0.01% Tween 20, 0.1% PMSF; temperature not stated; RNA/ssDNA probes preheated at 56 C, RiboGuard with RNA", "settings": "protein: recombinant, tags: His tag (pET101, nickel purification), chain copies: 2"}, "[5]": {"target": "T1, Bpur", "test": "EMSA; 50-500 nM Bpur; EMSA: 50 mM Tris pH 7.5, 25 mM KCl, 1 mM MgCl2, 100 nM DTT, 10% glycerol, 0.01% Tween 20, 0.1% PMSF; temperature not stated; RNA/ssDNA probes preheated at 56 C, RiboGuard with RNA", "settings": "protein: recombinant; tags: His tag (pET101, nickel purification); chain copies: 2; label: 5' biotin"}},
  "data": [
    {"binder": "competitor C (dsDNA) DNA 1: GTAGTGCATTTGCAATGGAGAGATTTTGGGGAGTTGTTTAAAATTAC DNA 2: GTAATTTTAAACAACTCCCCAAAATCTCTCCATTGCAAATGCACTAC", "values": [
      {"measurement": "binding result", "setting": "[1]", "result": "binds"}
    ]},
    {"binder": "Bio-3 (dsDNA) DNA 1: GGAGAGATTTTGGGGAGTTGTTTAAAATTACATTTGCGTTTTGTTAAAATGTAAC DNA 2: GTTACATTTTAACAAAACGCAAATGTAATTTTAAACAACTCCCCAAAATCTCTCC", "values": [
      {"measurement": "binding result", "setting": "[2]", "result": "binds"}
    ]},
    {"binder": "Bio-2 (dsDNA) DNA 1: TAAAATTACATTTGCGTTTTGTTAAAATGTAACAGCTGAATGTAAC DNA 2: GTTACATTCAGCTGTTACATTTTAACAAAACGCAAATGTAATTTTA", "values": [
      {"measurement": "binding result", "setting": "[3]", "result": "no binding"}
    ]},
    {"binder": "Bio-sense-RNA (ssRNA) RNA: AAUGGAGAGAUUUUGGGGAGUUGUUUAAAAUUACAUUUGCGUUUUGUUAAAAUG", "values": [
      {"measurement": "Kd", "setting": "[4]; label: 5' biotin", "result": 13, "unit": "nM"}
    ]},
    {"binder": "Bio-1 (dsDNA) DNA 1: GAGTAGTGCATTTGCAATGGAGAGATTTTGGGGAGTTGTTTAAAATTACATTTGCGTTTTGTTAAAATGTAACAGCTGAATGTAACAAAATTATATATTTAAATCTTGAAATA DNA 2: TATTTCAAGATTTAAATATATAATTTTGTTACATTCAGCTGTTACATTTTAACAAAACGCAAATGTAATTTTAAACAACTCCCCAAAATCTCTCCATTGCAAATGCACTACTC", "values": [
      {"measurement": "binding result", "setting": "[5]", "result": "binds"}
    ]},
    {"binder": "Bio-dsDNA (dsDNA) DNA 1: AATGGAGAGATTTTGGGGAGTTGTTTAAAATTACATTTGCGTTTTGTTAAAATG DNA 2: CATTTTAACAAAACGCAAATGTAATTTTAAACAACTCCCCAAAATCTCTCCATT", "values": [
      {"measurement": "Kd", "setting": "[4]; label: 5' biotin (one strand), blunt", "result": 130, "unit": "nM"}
    ]},
    {"binder": "Bio-sense-ssDNA (ssDNA) DNA: AATGGAGAGATTTTGGGGAGTTGTTTAAAATTACATTTGCGTTTTGTTAAAATG", "values": [
      {"measurement": "Kd", "setting": "[4]; label: 5' biotin", "result": 390, "unit": "nM"}
    ]}
  ]
}
